The values below are quoted from earlier work in article PMC4082410.

pKd: −log10 of the molar value.

Common to all, as to assay: kinetics
Series [1] deals with quinol MADH (Paracoccus denitrificans) (UniProt P22619).
For series [2], the target named is preMADH (Paracoccus denitrificans) (UniProt P22619).
The target of series [3] is quinone MADH (Paracoccus denitrificans) (UniProt P22619).

Broadly, the pKd is the negative decadic logarithm of the Kd, by convention in mol/L. For the substance bis-Fe(IV) MauG (from UniProt Q51658), the pKd in series [1] is 4.95; in series [2], greater than 5.82.

Turning to diferrous MauG (from UniProt Q51658), the pKd in series [3] is 5.00.
